Source: IntAct's records for PubMed 24976139

B1: Tyrosine-protein phosphatase non-receptor type 1 (Homo sapiens), P18031 (parent)
chain: MEMEKEFEQIDKSGSWAAIYQDIRHEASDFPCRVAKLPKNKNRNRYRDVSPFDHSRIKLHQEDNDYINASLIKMEEAQRSYILTQGPLPNTCGHFWEMVWEQKSRGVVMLNRVMEKGSLKCAQYWPQKEEKEMIFEDTNLKLTLISEDIKSYYTVRQLELENLTTQETREILHFHYTTWPDFGVPESPASFLNFLFKVRESGSLSPEHGPVVVHCSAGIGRSGTFCLADTCLLLMDKRKDPSSVDIKKVLLEMRKFRMGLIQTADQLRFSYLAVIEGAKFIMGDSSVQDQWKELSHEDLEPPPEHIPPPPRPPKRILEPHNGKCREFFPNHQWVKEETQEDKDCPIKEEKGSPLNAAPYGIESMSQDTEVRSRVVGGSLRGAQAASPAKGEPSLPEKDEDHALSYWKPFLVNMCVATVLTAGAYLCYRFLFNSNT
partner: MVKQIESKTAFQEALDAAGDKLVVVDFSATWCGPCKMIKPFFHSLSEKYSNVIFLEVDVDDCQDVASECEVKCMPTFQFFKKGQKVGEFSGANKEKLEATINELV

Variants of: B1
Settings: with thio_human TXN

Variant	effect of a mutation on the interaction
C215A;S216A	disrupting interaction
